Source: PMC11986143 (Nature Communications, 2025)
[ ]: non-standard residue; d: D form.

Molecular target: integrin αvβ3 on bEnd.3 vesicles (mouse (endogenous in bEnd.3), UniProt P43406 31-1044; O54890 26-787)
Assay: SPR

Chain of integrin αvβ3 on bEnd.3 vesicles (P43406 31-1044, chain 1 of 2): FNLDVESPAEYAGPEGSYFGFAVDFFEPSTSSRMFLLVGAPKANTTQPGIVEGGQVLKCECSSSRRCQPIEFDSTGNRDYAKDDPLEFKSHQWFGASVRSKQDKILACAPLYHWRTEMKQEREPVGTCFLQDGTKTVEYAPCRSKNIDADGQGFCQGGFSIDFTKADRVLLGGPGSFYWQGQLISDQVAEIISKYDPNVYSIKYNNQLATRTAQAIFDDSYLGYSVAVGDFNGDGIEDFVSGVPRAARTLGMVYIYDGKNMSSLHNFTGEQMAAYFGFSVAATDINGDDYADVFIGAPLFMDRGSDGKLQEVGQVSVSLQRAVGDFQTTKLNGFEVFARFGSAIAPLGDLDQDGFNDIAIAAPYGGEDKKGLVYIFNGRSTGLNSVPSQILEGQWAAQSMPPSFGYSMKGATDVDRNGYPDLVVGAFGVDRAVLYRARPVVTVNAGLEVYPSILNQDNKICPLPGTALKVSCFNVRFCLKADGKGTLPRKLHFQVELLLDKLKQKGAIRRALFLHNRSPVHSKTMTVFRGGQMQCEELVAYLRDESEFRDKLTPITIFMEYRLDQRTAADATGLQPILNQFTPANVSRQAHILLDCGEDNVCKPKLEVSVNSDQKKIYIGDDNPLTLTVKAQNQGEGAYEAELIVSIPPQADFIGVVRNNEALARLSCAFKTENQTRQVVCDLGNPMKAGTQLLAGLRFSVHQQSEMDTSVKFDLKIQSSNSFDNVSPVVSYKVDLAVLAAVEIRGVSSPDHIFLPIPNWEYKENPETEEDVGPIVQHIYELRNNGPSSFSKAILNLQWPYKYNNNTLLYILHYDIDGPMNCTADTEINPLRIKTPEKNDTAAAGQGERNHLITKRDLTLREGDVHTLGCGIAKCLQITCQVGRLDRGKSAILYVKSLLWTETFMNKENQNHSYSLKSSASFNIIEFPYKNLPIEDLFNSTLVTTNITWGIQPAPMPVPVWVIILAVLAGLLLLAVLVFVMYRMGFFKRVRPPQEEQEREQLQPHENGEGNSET
Chain of integrin αvβ3 on bEnd.3 vesicles (O54890 26-787, chain 2 of 2): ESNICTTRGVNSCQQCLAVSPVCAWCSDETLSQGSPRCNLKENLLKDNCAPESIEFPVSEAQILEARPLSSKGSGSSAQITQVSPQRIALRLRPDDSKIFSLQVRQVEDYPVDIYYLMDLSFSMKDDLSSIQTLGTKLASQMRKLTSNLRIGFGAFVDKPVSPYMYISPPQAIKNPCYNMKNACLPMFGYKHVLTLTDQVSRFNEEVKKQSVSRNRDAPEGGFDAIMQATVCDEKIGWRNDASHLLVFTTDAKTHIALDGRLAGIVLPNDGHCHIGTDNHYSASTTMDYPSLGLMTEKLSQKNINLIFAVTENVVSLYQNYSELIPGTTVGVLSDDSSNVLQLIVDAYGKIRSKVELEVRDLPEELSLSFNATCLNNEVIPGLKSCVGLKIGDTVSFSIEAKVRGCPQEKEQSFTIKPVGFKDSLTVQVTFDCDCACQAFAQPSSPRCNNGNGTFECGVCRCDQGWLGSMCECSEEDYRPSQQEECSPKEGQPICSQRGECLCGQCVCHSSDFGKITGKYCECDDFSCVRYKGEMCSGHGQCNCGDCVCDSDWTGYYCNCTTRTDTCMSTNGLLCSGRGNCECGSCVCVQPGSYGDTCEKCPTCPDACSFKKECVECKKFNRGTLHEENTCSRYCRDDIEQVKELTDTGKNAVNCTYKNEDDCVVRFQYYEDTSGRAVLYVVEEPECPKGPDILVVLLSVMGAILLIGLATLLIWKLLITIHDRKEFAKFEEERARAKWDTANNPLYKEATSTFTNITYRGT

Binder: cyclo(RGD[dY]K) [c(RGDyK) peptide]
- Kd: 17.1 µM
